From article PMC6078952

Biological target: Anastellin
Test: BLI; Octet RED96, anastellin (100 µg/ml) covalently coupled to AR2G biosensors via amine groups, sensors dipped into LOX-PP solutions for 3 min in HBS-P20; 1:1 model

B1: recombinant human propeptide of lysyl oxidase (LOX-PP) (domain or fragment)
chain: APLAAGQQQPPREPPAAPGAWRQQIQWENNGQVFSLLSLGSQYQPQRRRDPGAAVPGAANASAQQPRTPILLIRDNRTAAARTRTAGSSGVTAGRPRPTARHWFQAGYSTSRAREAGASRAENQTAPGEVPALSNLRPPSRVDGMVG
modifications: N-linked oligosaccharides (removed by PNGase F, about 13 kDa; three glycosylated asparagine residues: N81, N97, N144)
Work on B1 yielded a Kd of 152 nM, a koff of 0.000445 s⁻¹ and a kon of 2930 M⁻¹ s⁻¹.
